# Measured values from patent US20230383005A1 (University of California, published 2023).
# Columns and labels:
# [1] = molecular target: human CD46 on the surface of living multiple myeloma cells (human), P15529; test: cell-based or functional assay
# [2] = molecular target: human CD46 on the surface of living multiple myeloma cells (human) (UniProt P15529); test: FACS on living MM1.S cells, MFI fitted with a one-site specific binding model
# [3] = molecular target: human CD46 on the surface of living multiple myeloma cells (human) (UniProt P15529); test: FACS on living RPMI8226 cells, MFI fitted with a one-site specific binding model
# [4] = molecular target: T1, recombinant CD46-Fc fusion (human CD46 domains 1 and 2) (human, UniProt P15529 35-159); test: BLItz label-free biosensor (ForteBio), sensor coated with YS5 IgG1, CD46-Fc (domains 1 and 2) in solution
# T1 construct: domain: domains 1 and 2; also called recombinant human CD46 protein fragment; recombinant CD46-Fc (domains 1 and 2); not shown: Fc from the pFUSE-Fc vector (Invivogen)
# T1 sequence (looked up): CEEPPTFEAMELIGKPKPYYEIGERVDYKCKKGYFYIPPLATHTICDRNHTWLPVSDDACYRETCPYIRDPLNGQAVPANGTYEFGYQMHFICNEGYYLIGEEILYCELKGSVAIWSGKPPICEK
# [5] = molecular target: T1, recombinant CD46-Fc fusion (human CD46 …); test: BLItz biolayer interferometry, biosensor coated with YS5 IgG1, CD46-Fc at 100 to 400 nM; one value for all four runs
Kd [2] [nM],Kd [3] [nM],Kd [4] [nM],kon [5] [M⁻¹ s⁻¹],Binder,"EC50, killing of primary MM patient cells at 48 hours (Annexin V/PI FACS) [1] [nM]","EC50, viability of MM1.S alone (luciferase, 96 hours) [1] [nM]","EC50, viability of MM1.S in the presence of BM61 stromal cells [1] [nM]","EC50, viability of MM1.S in the presence of HS5 stromal cells [1] [nM]","EC50, viability of MM1.S in the presence of HS27A stromal cells [1] [nM]"
,,,,"CD46-ADC (anti-CD46 IgG1 YS5 conjugated to MMAF via the mcvcpab linker) (antibody, V domains shown, here or on the partner: mcvcpab-MMAF on cysteines freed by TCEP reduction; average drug per antibody 3.3; sites not stated) VH: QVQLVQSGGGVVQPGRSLRLACAASGLTVNNYAMHWVRQAPGKGLEWVAVISYDGNNKYYADSVKGRFTISRDNSKNTLYLQMNSLRAEDTAVYYCAKGGGYFDLWGRGTLVTVSS VL: QSVLTQPPSVSGAPGQRVTISCTGSSSNIGAGYDVHWYQQLPGTAPKLLIYGNNNRPSGVPDRFSGSKSGTSASLAITGLQAEDEADYYCSSYTSGTWLFGGGTKLTVL",< 10,2.25,1.05,0.77,0.92
2.24,1.19,2.99,88000,"YS5 IgG1 (full-length human anti-CD46 IgG1) (antibody, V domains shown, also called anti-CD46 antibody; CD46 antibody) VH: QVQLVQSGGGVVQPGRSLRLACAASGLTVNNYAMHWVRQAPGKGLEWVAVISYDGNNKYYADSVKGRFTISRDNSKNTLYLQMNSLRAEDTAVYYCAKGGGYFDLWGRGTLVTVSS VL: QSVLTQPPSVSGAPGQRVTISCTGSSSNIGAGYDVHWYQQLPGTAPKLLIYGNNNRPSGVPDRFSGSKSGTSASLAITGLQAEDEADYYCSSYTSGTWLFGGGTKLTVL",,,,,
